Measurements taken from patent US20050058639A1 (AstraZeneca / MedImmune, published 2005).

T1: human MIP-1-alpha (human, UniProt P10147 24-92, limits assumed)
T1 construct: also called hMIP-1-alpha
T1 sequence (looked up): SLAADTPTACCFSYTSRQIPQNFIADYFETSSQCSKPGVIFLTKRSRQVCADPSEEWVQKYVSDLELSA

T2: recombinant human MCP-2 (human, UniProt P80075 24-99)
T2 construct: also called rhMCP-2
T2 sequence (looked up): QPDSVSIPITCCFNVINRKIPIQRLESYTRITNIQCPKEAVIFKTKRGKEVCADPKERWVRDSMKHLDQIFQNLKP

T3: human GRO/MGSA (human, UniProt P09341 35-107)
T3 construct: also called hGRO/MGSA; GRO-alpha
T3 sequence (looked up): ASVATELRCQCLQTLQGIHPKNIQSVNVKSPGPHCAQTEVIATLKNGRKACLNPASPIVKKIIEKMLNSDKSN

T4: human RANTES (human, UniProt P13501 24-91)
T4 construct: also called hRANTES
T4 sequence (looked up): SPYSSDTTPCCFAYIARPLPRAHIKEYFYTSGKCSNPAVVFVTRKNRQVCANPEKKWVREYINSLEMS


Legend:
[1] = target: T5, human monocyte chemo-attractant protein-1 (MCP-1) (human, UniProt P13500 24-99); experiment: cell-based or functional assay
T5 sequence (P13500 24-99): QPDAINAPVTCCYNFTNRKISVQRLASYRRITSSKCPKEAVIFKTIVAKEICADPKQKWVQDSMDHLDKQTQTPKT

recombinant human MCP-3 = target: T6, recombinant human MCP-3 (human, UniProt P80098 24-99); experiment: ELISA, coated antigen
T6 construct: also called rhMCP-3
T6 sequence (P80098 24-99 limits assumed): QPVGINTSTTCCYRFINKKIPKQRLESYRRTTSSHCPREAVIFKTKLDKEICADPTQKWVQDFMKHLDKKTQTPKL
Description: (§1) Determining cross-reactivity of anti-MCP-1 antibodies with other chemokines. ELISA plates (Fisher Cat. No. 12-565-136) were coated with 50 μl/well of MCP-1, MCP-2, MCP-3, MCP-4, RANTES, GRO-alpha, MIP-1 alpha, eotaxin, rat MCP-1 and mouse JE (2 μg/ml) in coating buffer (0.1 M carbonate buffer, pH 9.6, NaHCO₃ 8.4 g/L, then incubated at 4° C. overnight. After incubation, the plates were washed with washing buffer (0.05% Tween 20 in PBS) three times. 200 μL/well blocking buffer (0.5% BSA, 0.1% Tween 20, 0.01% Thimerosal in 1×PBS) were added and the plates incubated at room temperature for 1 hour. After incubation, the plates were washed with washing buffer three times. 50 μL/well of hybridoma supernatants, and positive and negative controls (positive control was anti-MCP-1 antibody purchased from R&D Sciences, and negative control was an antibody to Keyhole Limpet Hemocyanin produced at Abgenix) were added and the plates incubated at room temperature for 2 hours. After incubation, the plates were washed three times with washing buffer. […] After incubation, the plates were washed three times with washing buffer and 100 μL/well of TMB (BioFX Lab. Cat. #TMSK-0 100-01) was added and the plates allowed to develop for about 10 minutes.

human MIP-1-alpha = target: T1, human MIP-1-alpha; experiment: ELISA, coated antigen
Description: as §1

[2] = target: T5, human monocyte chemo-attractant …; experiment: ELISA, coated antigen
Description: as §1

rat MCP-1 = rat MCP-1 (rat, UniProt P14844 24-148); experiment: ELISA, coated antigen
Chain of rat MCP-1 (P14844 24-148 limits assumed): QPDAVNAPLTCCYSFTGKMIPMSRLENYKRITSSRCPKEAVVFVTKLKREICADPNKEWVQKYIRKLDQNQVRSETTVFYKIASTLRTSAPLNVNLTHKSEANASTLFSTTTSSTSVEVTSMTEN
Description: as §1

[3] = target: T7, recombinant mouse JE/MCP-1 (mouse, UniProt P10148 24-148); experiment: ELISA, coated antigen
T7 construct: also called rmJE/MCP-1
T7 sequence (P10148 24-148 limits assumed): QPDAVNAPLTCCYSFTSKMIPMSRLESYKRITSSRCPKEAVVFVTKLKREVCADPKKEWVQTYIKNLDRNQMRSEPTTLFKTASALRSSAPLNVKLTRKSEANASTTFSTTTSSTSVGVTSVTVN
Description: as §1

recombinant human MCP-2 = target: T2, recombinant human MCP-2; experiment: ELISA, coated antigen
Description: as §1

recombinant human MCP-4 = target: T8, recombinant human MCP-4 (human, UniProt Q99616 24-98, limits assumed); experiment: ELISA, coated antigen
T8 construct: also called rhMCP-4
T8 sequence (Q99616 24-98 limits assumed): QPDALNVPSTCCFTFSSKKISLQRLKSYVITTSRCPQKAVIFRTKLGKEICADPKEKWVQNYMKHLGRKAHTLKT
Description: as §1

human eotaxin = target: T9, human eotaxin (human, UniProt P51671 24-97); experiment: ELISA, coated antigen
T9 construct: also called hEotaxin
T9 sequence (P51671 24-97 limits assumed): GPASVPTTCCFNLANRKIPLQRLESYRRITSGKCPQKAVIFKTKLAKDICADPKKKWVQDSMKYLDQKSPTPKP
Description: as §1

human GRO/MGSA = target: T3, human GRO/MGSA; experiment: ELISA, coated antigen
Description: as §1

human RANTES = target: T4, human RANTES; experiment: ELISA, coated antigen
Description: as §1

[4] = target: T5, human monocyte chemo-attractant …; experiment: ELISA, hybridoma supernatant on coated MCP-1
Description: Selection of candidate antibodies for ELISA. After 14 days of culture, hybridoma supernatants were screened for MCP-1-specific monoclonal antibodies. The ELISA plates (Fisher, Cat. No. 12-565-136) were coated with 50 μl/well of MCP-1 (2 μg/mL) in Coating Buffer (0.1 M Carbonate Buffer, pH 9.6, NaHCO₃8.4 g/L), then incubated at 4° C. overnight. After incubation, the plates were washed with Washing Buffer (0.05% Tween 20 in PBS) three times. 200 μl/well Blocking Buffer (0.5% BSA, 0.1% Tween 20, 0.01% Thimerosal in 1× PBS) were added and the plates incubated at room temperature for 1 hour. After incubation, the plates were washed with Washing Buffer three times. 50 μL/well of hybridoma supernatants, and positive and negative controls were added and the plates incubated at room temperature for 2 hours.
The positive control used throughout was XMG2 MCP-1 Group 1, footpad N160-7 and the negative control was XMG2 KLH Group 1, footpad L627-6. After incubation, the plates were washed three times with Washing Buffer. […] In the secondary screen, three sets of samples (positives in first screening) were screened, one set for hIgG detection, one set for hKappa detection, and one set for hlambda detection. After incubation, the plates were washed three times with Washing Buffer. 100 μL/well of TMB (BioFX Lab. Cat. #TMSK-0100-01) were added and the plates allowed to develop for about 10 minutes (until negative control wells barely started to show color), then 50 μL/well stop solution (TMB Stop Solution (BioFX Lab. Cat. #STPR-0100-01) were added and the plates read on an ELISA plate reader at wavelength 450 nm. The OD readings from the positive wells are presented in Table 9.

Binder	IC50 Ca++ Flux [1] [µg/mL]	IC50 Chemotaxis [1] [µg/mL]	ELISA OD (recombinant human MCP-3) [OD450]	ELISA OD (human MIP-1-alpha) [OD450]	ELISA OD [2] [OD450]	ELISA OD (rat MCP-1) [OD450]	ELISA OD [3] [OD450]	ELISA OD (recombinant human MCP-2) [OD450]	ELISA OD (recombinant human MCP-4) [OD450]	ELISA OD (human eotaxin) [OD450]	ELISA OD (human GRO/MGSA) [OD450]	ELISA OD (human RANTES) [OD450]	ELISA OD-MCP-1 [4] [OD450]
anti-MCP-1 mAb 1.12.1 (antibody, V domains shown) VH: QVQLVQSGAEVKKPGASVKVSCKVSGYTLTELSMHWVRQAPGKGLEWMGGFDPEDGETIYAQKFQGRVTMTEDTSTDTAYMELSSLRSEDTAVYYCATNDFWSGYYNYWGQGTLVTVSS VL: not shown	0.13	0.35	0.046	0.046	0.933	0.062	0.042	0.042	0.044	0.044	0.046	0.046	4
anti-MCP-1 mAb 1.13.1 (antibody, V domains shown) VH: QVQLVQSGAEVKKPGASVKVSCKVSGHTLTELSMHWVRQAPGKGLEWMGGFDPEDDETIYAQKFQDRVTMTEDTSTDTAYMELSSLRSEDTAVYYCATNDFWSGYFDCWGQGTLVTVSS VL: DIVLTQSPDSLAVCLGERATINCKSSQSVLYSPNNKNFLVWYQQRPGQPPKLLIYWASTRESGVPDRFSGSGSGTDFTLTISSLQAEDVAVYYCQQYYSSPWTFGQGTKVEIKR	0.11	0.5	0.047	0.042	1.16	0.06	0.043	0.046	0.045	0.044	0.046	0.046	4
anti-MCP-1 mAb 1.10.1 (antibody, V domains shown) VH: QVQLVQSGAEVKKPGASVKVSCKVSGYTLTELSMHWVRQAPGKGLEWMGGFDPEDGETIYAQKFQGRVTMTEDTSTDTAYMELSSLRSEDTAVYYCATNEFWSGYFDYWGQGTLVTVSS VL: not shown	0.18	1.2	0.047	0.043	1.26	0.059	0.041	0.04	0.052	0.05	0.043	0.042	3.85
anti-MCP-1 mAb 1.8.1 (antibody, V domains shown) VH: QVQLVQSGAEVKKPGASVKVSCKVSGHIFTELSIHWVRQAPGKGLEWMGGFDPEDGETIYAQKFQGRVTMTEDTSTDTVYMELSSLRSEDTAVYYCATNDFWSGYFDYWGQGTLVTVSS VL: DIVMTQSPGSLAVSLGERATINCKSSQSILFRSNNKNYLTWYQQKPGQPPKLLIYWASIRESGVPDRFSGSGSGSNFTLTITSLQAEDVAIYYCQQYYSSPWTFGQGTKVEIKR	0.26	0.88	0.054	0.045	1.16	0.049	0.045	0.048	0.046	0.047	0.06	0.045	3.47
anti-MCP-1 mAb 1.11.1 (antibody, V domains shown) VH: QVQVVQSGAEVKNPGASVKVSCKVSGSTLTELSMHWVRQAPGKGLEWMGGFDPEDGETIYAQKFQGRVTMTEDTSTDTVYMELSSLRSEDTAVYYCATNDFWSGYFDYWGQGTLVTVSS VL: DIVMTQSPDSLAVSLGERATITCKSSQTVLYSSNNKNYLVWYQQKSGQPPKLLIHWASIRESGVPDRFSGSGSGTDFTLTISSLQAEDVAVYYCQQYYSSPWTFGQGTKVEIKR	0.098	0.81	0.043	0.042	1.34	0.052	0.041	0.041	0.043	0.049	0.042	0.042	3.9
